Experimental data: patent publication US20190282616A1, “MACROPHAGES REDIRECT PHAGOCYTOSIS BY NON-PROFESSIONAL PHAGOCYTES AND INFLUENCE INFLAMMATION” (University of Virginia Patent Foundation, priority 2016, published 2019)

Assays:
[1] = system: IGF-1 in BAL fluid; test: In vivo cytokine administration: IGF-1 in BAL fluid; settings: 1 μg recombinant mouse cytokine intranasally for two consecutive days
Description: Mice were administered intranasally with 1 μg of recombinant mouse IL-4, IL-5, or IL-13 (eBiosciences), 1×10^6 apoptotic Jurkat cells, or PBS as control, for two consecutive days. On the third day, BAL fluid was recovered and centrifuged; the supernatant was stored at −80° C. for subsequent cytokine analysis. IL-4, IL-5, IL-6, and CCL-11/Eotaxin-1 in the BAL fluid of mice that were sensitized with HDM (regimen #1) were quantified by a multiplex Luminex performed by the University of Virginia Flow Cytometry Core Facility. Secretion of IGF-1 from J774 cells, peritoneal macrophages, and BAL fluids, as well as TSLP from BAL fluids, were measured by ELISA (R&D Systems).

[2] = system: LR73 cells; test: In vitro engulfment assay: apoptotic thymocyte uptake by LR73 cells; type: cell-based, hamster; settings: soluble mediator alone; IGF-I at concentrations reported in serum (100-600 ng/mL); other factors over a range of concentrations
Description: LR73, SVEC-40, BEAS-2B, and 16HBE14o-cells were seeded in a 24 well plate. Thymocytes were isolated from 4-6 week old mice and induced to undergo apoptosis with dexamethasone. Thymocytes or prepared microvesicles were then stained with either CypHer5E (GE Healthcare, PA15401) or TAMRA (Invitrogen, C-1171). LR73 and SVEC-40 cells were incubated with apoptotic thymocytes at a 1:10 phagocyte to target ratio, BEAS-2B at a 1:5 phagocyte to target ratio, and 16HBE14o—at a 1:20 phagocyte to target ratio for 2 hours. Mouse IGF-I (Sigma-Aldrich), human IGF-I (Sigma-Aldrich), human IGF-II (Sigma-Aldrich) were added to the phagocytes at the same time as addition of apoptotic targets. For IGFBP3 studies, IGFBP3 (Sigma-Aldrich) was added to media or supernatant from J774 cells for one hour to allow IGFBP3 to bind to any available IGF-I, then the mix is added to phagocytes along with apoptotic targets. […] Targets were then washed off three times with PBS, and the cells were dissociated from the plate with trypsin and the engulfment assessed by flow cytometry.

[3] = system: IGF-1R, Akt and Erk1/2 phosphorylation in LR73 cells; test: Immunoblotting of signaling in LR73 cells; type: cell-based, hamster; settings: serum-starved LR73 cells, 100 ng/mL growth factor
Description: LR73, J774, or BEAS-2B cells were seeded in a 60 mm dish at a concentration of 5×10^5. […] Cells were lysed in RIPA buffer and used in Western blots. The blots were probed for phospho-Erk1/2 (Cell Signaling Technology, #4370), phospho-Akt (Cell Signaling Technology, #4060), phospho-IGF-1R (Cell Signaling, #3024), total Erk2 (Santa Cruz Biotechnology, #sc-154-G), total Akt (Cell Signaling Technology, #4691), total IGF-1R (Cell Signaling, #9750), and anti-B-actin-HRP (Sigma-Aldrich, #A3854) followed by chemiluminescence detection.

Row | Molecule | IGF-1 in bronchoalveolar lavage (BAL) fluid [1] | apoptotic cell uptake (engulfment) by LR73 cells [2] | early downstream signaling events (Erk1/2 phosphorylation) [3]
1 | IL-5: cytokine; recombinant mouse IL-5 (eBiosciences) (protein, UniProt P04401 21-133, looked up) Interleukin-5: MEIPMSTVVKETLTQLSAHRALLTSNETMRLPVPTHKNHQLCIGEIFQGLDILKNQTVRGGTVEMLFQNLSLIKKYIDRQKEKCGEERRRTRQFLDYLQEFLGVMSTEWAMEG | but not IL-5, induced IGF-1 production | – | –
2 | PDGF-BB: growth factor of the tested panel of soluble mediators (protein, UniProt P01127 82-190, looked up, homodimer, growth factor of the tested panel of soluble mediators) Platelet-derived growth …: SLGSLTIAEPAMIAECKTRTEVFEISRRLIDRTNANFLVWPPCVEVQRCSGCCNNRNVQCRPTQVQLRPVQVRKIEIVRKKPIFKKATVTLEDHLACKCETVAAARPVT | – | did not alter engulfment | elicited early downstream signaling events
3 | IL-13: cytokine; recombinant mouse IL-13 (eBiosciences) (protein, UniProt P20109 19-131, looked up) Interleukin-13: APGPVPRSVSLPLTLKELIEELSNITQDQTPLCNGSMVWSVDLAAGGFCVALDSLTNISNCNAIYRTQRILHGLCNRKAPTTVSSLPDTKIEVAHFITKLLSYTKQLFRHGPF | induced IGF-1 production | – | –
